Legend:
[1] = response of peptide gels to chemical switches (pH, salt, surfactant, solvent); assay type: physicochemical
Text: As mentioned, the gels of the invention are susceptible to chemical triggers which result in changes in the properties of the gels so that they switch from, for example, a first fluid state to a gel state or vica versa.
Addition of salt causes the network to contract and phase separate as a more concentrated gel phase. Changing the polarity of the solvent, ie making it more polar (water) or non-polar ( chloroform), preserves the β-sheet structure, but the gel network is destabilised and precipitation of the peptide occurs. In strong hydrogen-bonding donor solvents (like hexafluoroisopropanol), the peptide adopts an α-helical conformation (FIG. 3b) and there is no gelation. Solvents containing arornatic groups cause destabilisation of β-tapes by 20-30% and disruption of the gels. This is believed to be due to competition between intermolecular peptide aromatic side-chain interactions and the aromatic groups of the solvent Acetylation at the N-terminus and amination at the C-temiinus of the 27-residue peptide results in a preference for the a-helical conformation and gels are not formed. It seems that favourable interactions between β-nanotapes and solvent are important for gel stabilisation. By appropriate peptide design, peptides can be produced which will form nanotapes and gels in a variety of solvents, including water. For example, peptides derived from the Drosophila Toll receptor protein, from the Alzheimer amyloid peptide and from desmin filaments and from the β-domain of the leu lysozyme (SER-1). Chemical switches also include changes in pH, for example, the hydrophilic peptide AcNH-Gln-Ala-Thr-Asn-Arg-Asn-Thr-AspGly-Ser-Thr-AspTyr-Gly-Ile-Leu-Gin-Ile-Asn-Ser-Arg-CONH2 (SER-1) forms a gel at neutral and acidic pH, whilst it switches to a neutonial fluid at pH higher than 11.

[2] = gel and β-tape formation of peptides in solvents; assay type: physicochemical
Text: Compatibility of the β-sheet surface and the solvent are also essential for gelation as opposed to peptide precipitation out of solution. For example, K24 forms β-tapes with both polar and apolar groups on their surfaces. Thus, they can form gels in solvents with intermediate polarity, corresponding to values of relative dielectric constants, εγ=εr=24-62.
In organic solvents such as ethanol, methanol and 2-chloroethanol we have discovered that the aforementioned peptide sequences self-assemble to provide elongated tapes approximately 8 nm wide and a single molecule in thickness.

Substance	effect of added 1,1,1,3,3,3-hexafluoropropanol-2 on the gel ([1]; addition of 50% v 1,1,1,3,3,3-hexafluoropropanol-2)	effect of added water on the gel ([1]; addition of 50% v water)	effect of sodium dodecylsulfate (SDS) on the gel ([1]; molar ratio 1 K27-350 SDS)	gel formation in solvents of higher or lower polarity ([2]; polarity above or below dielectric constant 24-62, β-sheet structures poorly soluble, precipitate)	relative dielectric constant of solvents in which gels are formed ([2]; solvents or solvent mixtures of intermediate polarity)	effect of lithium chloride on the gel ([1]; molar ratio 1 peptide-7 lithium chloride)	drop of the fraction of β-sheet structure ([1]; solvents containing aromatic groups)
NH2-Lys-Leu-Glu-Ala-Leu-Tyr-Ile-Leu-Met-Val-Leu-Cly-Phe-Phe-Gly-Phe-Phe-Thr-Leu-Gly-Ie-Met-Leu-Ser-Tyr-Ile-Arg-CO2H [K27]	destroys the gel	destroys the gel	destroys the gel	–	–	–	–
NH2-Lys-Leu-Glu-Ala-Leu-Tyr-Val-Leu-Gly-Phe-Phe-Gly-Phe-Phe-Thr-Leu-Gly-Be-Met-Leu-Ser-Tyr-Rle-Arg-CO2H [K24]	–	–	–	gel is not formed	24-62	contracts	20-30%
